Earlier results as cited in PMC3518592.

Biological target: ubiquitin (UniProt P0CG48)

Chain of Vps9 CUE (P54787 405-451): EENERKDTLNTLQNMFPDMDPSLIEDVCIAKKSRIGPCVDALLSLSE

In the case of Vps9 CUE (from UniProt P54787), the Kd is given as 20 µM.
